Test results as given in article PMC5716730.

Target: Cartilage oligomeric matrix protein (COMP), full-length, stably overexpressed in prostate cancer cells (human) (UniProt P49747)
Test: non-reducing SDS-PAGE with western blot; concentrated conditioned medium (Opti-MEM, 2 days) of transfected cells on a 5% non-reducing SDS-PAGE gel, blotted with anti-human COMP; under reducing conditions (10% gel) a sharp band of 130 kDa

Sequence of Cartilage oligomeric matrix protein (COMP), full-length, stably overexpressed in prostate cancer cells, P49747 21-757 (natural protein; other documents disagree on this pair) (P49747 21-757): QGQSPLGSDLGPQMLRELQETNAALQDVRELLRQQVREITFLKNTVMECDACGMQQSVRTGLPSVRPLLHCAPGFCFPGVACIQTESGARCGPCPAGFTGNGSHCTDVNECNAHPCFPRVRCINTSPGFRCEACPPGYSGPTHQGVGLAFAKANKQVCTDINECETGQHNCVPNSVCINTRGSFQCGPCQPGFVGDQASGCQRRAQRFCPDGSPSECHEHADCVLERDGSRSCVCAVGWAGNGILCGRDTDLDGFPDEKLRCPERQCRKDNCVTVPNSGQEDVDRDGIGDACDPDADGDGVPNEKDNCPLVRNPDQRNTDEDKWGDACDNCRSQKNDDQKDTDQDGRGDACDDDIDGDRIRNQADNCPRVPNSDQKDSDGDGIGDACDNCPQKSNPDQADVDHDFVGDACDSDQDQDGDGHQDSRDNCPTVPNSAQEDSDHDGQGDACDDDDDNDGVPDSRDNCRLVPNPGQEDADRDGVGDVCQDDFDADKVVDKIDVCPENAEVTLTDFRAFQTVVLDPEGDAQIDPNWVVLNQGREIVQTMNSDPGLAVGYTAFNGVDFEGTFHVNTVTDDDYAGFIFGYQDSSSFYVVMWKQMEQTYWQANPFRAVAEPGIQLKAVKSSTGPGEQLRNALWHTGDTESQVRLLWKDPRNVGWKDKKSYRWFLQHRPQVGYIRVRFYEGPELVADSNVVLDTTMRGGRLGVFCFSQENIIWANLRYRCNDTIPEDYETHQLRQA

stoichiometry N: 5
Substance: Cartilage oligomeric matrix protein (COMP), full-length, stably overexpressed in prostate cancer cells, P49747 21-757 (natural protein; other documents disagree on this pair)
